Laboratory results published in patent US20170015742A1 (published 2017).

Legend:
Assay in all cases: cell-based or functional assay
[1] = target: recombinant human PDGF-BB (human, UniProt P01127 82-190)
Target sequence in this assay (P01127 82-190 limits assumed): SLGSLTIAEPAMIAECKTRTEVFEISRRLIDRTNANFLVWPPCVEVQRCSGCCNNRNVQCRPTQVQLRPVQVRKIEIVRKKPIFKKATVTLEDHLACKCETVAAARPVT

[2] = target: recombinant human VEGF165 (human, UniProt P15692 207-395)
[3] = target: recombinant human PDGF-BB (human, UniProt P01127 82-190); remark: listed apart in the source
Target sequence in this assay (P01127 82-190 limits assumed): as above

recombinant human VEGF165, sequence (P15692 other isoform, or with tags, fused parts or gaps limits assumed): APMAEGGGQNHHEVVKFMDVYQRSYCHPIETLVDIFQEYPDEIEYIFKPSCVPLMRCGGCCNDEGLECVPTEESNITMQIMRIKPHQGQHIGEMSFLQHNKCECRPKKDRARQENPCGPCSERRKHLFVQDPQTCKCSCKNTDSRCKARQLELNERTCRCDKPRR

Potency IC50 (nM) NIH-3T3 hPDGF-BB [1] [nM]	Potency IC50 (nM) HMVEC-d hVEGF165 [2] [nM]	NIH-3T3 hPDGF-BB Potency IC50 [3] [nM]	Binder
0.063	0.095	–	AB014-GS10-9E8.4 VH-VK (bispecific antibody, human IgG1, kappa, L234A L235A) heavy: EVQLVESGGGLVQPGGSLRLSCAASGYTFTNYGMNWVRQAPGKGLEWVGWINTYTGEPTYAADFKRRFTFSLDTSKSTAYLQMNSLRAEDTAVYYCAKYPHYYGSSHWYFDVWGQGTLVTVSSASTKGPSVFPLAPSSKSTSGGTAALGCLVKDYFPEPVTVSWNSGALTSGVHTFPAVLQSSGLYSLSSVVTVPSSSLGTQTYICNVNHKPSNTKVDKKVEPKSCDKTHTCPPCPAPEAAGGPSVFLFPPKPKDTLMISRTPEVTCVVVDVSHEDPEVKFNWYVDGVEVHNAKTKPREEQYNSTYRVVSVLTVLHQDWLNGKEYKCKVSNKALPAPIEKTISKAKGQPREPQVYTLPPSREEMTKNQVSLTCLVKGFYPSDIAVEWESNGQPENNYKTTPPVLDSDGSFFLYSKLTVDKSRWQQGNVFSCSVMHEALHNAYTQKSLSLSPGKGGSGGGGSGGEVTLRESGPALVKPTQTLTLTCTFSGFSLSTYGMGVGWIRQPPGKALEWLANIWWDDDKYYNPSLKNRLTISKDTSKNQVVLTMTNMDPVDTATYYCARIESIGTTYSFDYWGQGTMVTVSSGGGGSGGGGSGGGGSEIVLTQSPGTLSLSPGERATLSCERSSGDIGDSYVSWYQQKPGQAPRLVIYADDQRPSGIPDRFSGSGSGTDFTLTISRLEPEDFAVYYCQSYDINIDIVFGGGTKVEIK light: not shown
0.066	0.13	–	AB014-GS15-9E8.4 VH-VK (bispecific antibody, human IgG1, kappa, L234A L235A) heavy: EVQLVESGGGLVQPGGSLRLSCAASGYTFTNYGMNWVRQAPGKGLEWVGWINTYTGEPTYAADFKRRFTFSLDTSKSTAYLQMNSLRAEDTAVYYCAKYPHYYGSSHWYFDVWGQGTLVTVSSASTKGPSVFPLAPSSKSTSGGTAALGCLVKDYFPEPVTVSWNSGALTSGVHTFPAVLQSSGLYSLSSVVTVPSSSLGTQTYICNVNHKPSNTKVDKKVEPKSCDKTHTCPPCPAPEAAGGPSVFLFPPKPKDTLMISRTPEVTCVVVDVSHEDPEVKFNWYVDGVEVHNAKTKPREEQYNSTYRVVSVLTVLHQDWLNGKEYKCKVSNKALPAPIEKTISKAKGQPREPQVYTLPPSREEMTKNQVSLTCLVKGFYPSDIAVEWESNGQPENNYKTTPPVLDSDGSFFLYSKLTVDKSRWQQGNVFSCSVMHEALHNAYTQKSLSLSPGKGGSGGGGSGGGGSGGEVTLRESGPALVKPTQTLTLTCTFSGFSLSTYGMGVGWIRQPPGKALEWLANIWWDDDKYYNPSLKNRLTISKDTSKNQVVLTMTNMDPVDTATYYCARIESIGTTYSFDYWGQGTMVTVSSGGGGSGGGGSGGGGSEIVLTQSPGTLSLSPGERATLSCERSSGDIGDSYVSWYQQKPGQAPRLVIYADDQRPSGIPDRFSGSGSGTDFTLTISRLEPEDFAVYYCQSYDINIDIVFGGGTKVEIK light: not shown
> 5	0.221	–	4G8.2-GS10-9E8.4 (bispecific antibody, human IgG1, kappa, L234A L235A) heavy: not shown light: ATQLTQSPSLSASVGDRVTITCRASESVSTHMHWYQQKPGKQPKLLIYGASNLESGVPSRFSGSGSGTDFTLTISSLQPEDFATYFCQQSWNDPFTFGQGTKLEIKRGGSGGGGSGEFVLTQSPGTLSLSPGERATLSCERSSGDIGDSYVSWYQQKPGQAPRLVIYADDQRPSGIPDRFSGSGSGTDFTLTISRLEPEDFAVYYCQSYDINIDIVFGGGTKVEIKRTVAAPSVFIFPPSDEQLKSGTASVVCLLNNFYPREAKVQWKVDNALQSGNSQESVTEQDSKDSTYSLSSTLTLSKADYEKHKVYACEVTHQGLSSPVTKSFNRGEC
0.327	–	–	9E8.4E-GS-9A8.12 (bispecific antibody, human IgG1, kappa, L234A L235A) heavy: EVTLRESGPALVKPTQTLTLTCTFSGFSLSTYGMGVGWIRQPPGKALEWLANIWWDDDKYYNPSLKNRLTISKDTSKNQVVLTMTNMDPVDTATYYCARIESIGTTYSFDYWGQGTMVTVSSGGGGSGGGGSEVQLVQSGAEVKKPGASVKVSCKASGYTFTNYGMYWVRQAPGQGLEWMGWINTETGKPIYADDFKGRVTMTTDTSTSTAYMELRSLRSDDTAVYYCARVDYDGSFWFAYWGQGTLVTVSSASTKGPSVFPLAPSSKSTSGGTAALGCLVKDYFPEPVTVSWNSGALTSGVHTFPAVLQSSGLYSLSSVVTVPSSSLGTQTYICNVNHKPSNTKVDKKVEPKSCDKTHTCPPCPAPEAAGGPSVFLFPPKPKDTLMISRTPEVTCVVVDVSHEDPEVKFNWYVDGVEVHNAKTKPREEQYNSTYRVVSVLTVLHQDWLNGKEYKCKVSNKALPAPIEKTISKAKGQPREPQVYTLPPSREEMTKNQVSLTCLVKGFYPSDIAVEWESNGQPENNYKTTPPVLDSDGSFFLYSKLTVDKSRWQQGNVFSCSVMHEALHNAYTQKSLSLSPGK light: EFVLTQSPGTLSLSPGERATLSCERSSGDIGESYVSWYQQKPGQAPRLVIYADDQRPSGIPDRFSGSGSGTDFTLTISRLEPEDFAVYYCQSYDINIDIVFGGGTKVEIKRGGSGGGGSGDTQLTQSPSSLSASVGDRVTITCRASESVSTVIHWYQQKPGKQPKLLIHGASNLESGVPSRFSGSGSGTDFTLTISSLQPEDFATYFCQQHWNDPPTFGQGTKLEIKRTVAAPSVFIFPPSDEQLKSGTASVVCLLNNFYPREAKVQWKVDNALQSGNSQESVTEQDSKDSTYSLSSTLTLSKADYEKHKVYACEVTHQGLSSPVTKSFNRGEC
–	–	0.147	9E8.4E-SL-9A8.12 DVD-Ig (PR-1577548) (bispecific antibody, human IgG1, kappa, L234A L235A) heavy: EVTLRESGPALVKPTQTLTLTCTFSGFSLSTYGMGVGWIRQPPGKALEWLANIWWDDDKYYNPSLKNRLTISKDTSKNQVVLTMTNMDPVDTATYYCARIESIGTTYSFDYWGQGTMVTVSSASTKGPEVQLVQSGAEVKKPGASVKVSCKASGYTFTNYGMYWVRQAPGQGLEWMGWINTETGKPIYADDFKGRVTMTTDTSTSTAYMELRSLRSDDTAVYYCARVDYDGSFWFAYWGQGTLVTVSSASTKGPSVFPLAPSSKSTSGGTAALGCLVKDYFPEPVTVSWNSGALTSGVHTFPAVLQSSGLYSLSSVVTVPSSSLGTQTYICNVNHKPSNTKVDKKVEPKSCDKTHTCPPCPAPEAAGGPSVFLFPPKPKDTLMISRTPEVTCVVVDVSHEDPEVKFNWYVDGVEVHNAKTKPREEQYNSTYRVVSVLTVLHQDWLNGKEYKCKVSNKALPAPIEKTISKAKGQPREPQVYTLPPSREEMTKNQVSLTCLVKGFYPSDIAVEWESNGQPENNYKTTPPVLDSDGSFFLYSKLTVDKSRWQQGNVFSCSVMHEALHNAYTQKSLSLSPGK light: EFVLTQSPGTLSLSPGERATLSCERSSGDIGESYVSWYQQKPGQAPRLVIYADDQRPSGIPDRFSGSGSGTDFTLTISRLEPEDFAVYYCQSYDINIDIVFGGGTKVEIKRTVAAPSVFIFPPDTQLTQSPSSLSASVGDRVTITCRASESVSTVIHWYQQKPGKQPKLLIHGASNLESGVPSRFSGSGSGTDFTLTISSLQPEDFATYFCQQHWNDPPTFGQGTKLEIKRTVAAPSVFIFPPSDEQLKSGTASVVCLLNNFYPREAKVQWKVDNALQSGNSQESVTEQDSKDSTYSLSSTLTLSKADYEKHKVYACEVTHQGLSSPVTKSFNRGEC
0.066	–	–	9E8.4E-LS-9A8.12 (bispecific antibody, human IgG1, kappa, L234A L235A) heavy: EVTLRESGPALVKPTQTLTLTCTFSGFSLSTYGMGVGWIRQPPGKALEWLANIWWDDDKYYNPSLKNRLTISKDTSKNQVVLTMTNMDPVDTATYYCARIESIGTTYSFDYWGQGTMVTVSSASTKGPSVFPLAPEVQLVQSGAEVKKPGASVKVSCKASGYTFTNYGMYWVRQAPGQGLEWMGWINTETGKPIYADDFKGRVTMTTDTSTSTAYMELRSLRSDDTAVYYCARVDYDGSFWFAYWGQGTLVTVSSASTKGPSVFPLAPSSKSTSGGTAALGCLVKDYFPEPVTVSWNSGALTSGVHTFPAVLQSSGLYSLSSVVTVPSSSLGTQTYICNVNHKPSNTKVDKKVEPKSCDKTHTCPPCPAPEAAGGPSVFLFPPKPKDTLMISRTPEVTCVVVDVSHEDPEVKFNWYVDGVEVHNAKTKPREEQYNSTYRVVSVLTVLHQDWLNGKEYKCKVSNKALPAPIEKTISKAKGQPREPQVYTLPPSREEMTKNQVSLTCLVKGFYPSDIAVEWESNGQPENNYKTTPPVLDSDGSFFLYSKLTVDKSRWQQGNVFSCSVMHEALHNAYTQKSLSLSPGK light: EFVLTQSPGTLSLSPGERATLSCERSSGDIGESYVSWYQQKPGQAPRLVIYADDQRPSGIPDRFSGSGSGTDFTLTISRLEPEDFAVYYCQSYDINIDIVFGGGTKVEIKRTVAAPDTQLTQSPSSLSASVGDRVTITCRASESVSTVIHWYQQKPGKQPKLLIHGASNLESGVPSRFSGSGSGTDFTLTISSLQPEDFATYFCQQHWNDPPTFGQGTKLEIKRTVAAPSVFIFPPSDEQLKSGTASVVCLLNNFYPREAKVQWKVDNALQSGNSQESVTEQDSKDSTYSLSSTLTLSKADYEKHKVYACEVTHQGLSSPVTKSFNRGEC
0.074	0.086	–	AB014-GS10-9E8.4 VK-VH (bispecific antibody, human IgG1, kappa, L234A L235A) heavy: EVQLVESGGGLVQPGGSLRLSCAASGYTFTNYGMNWVRQAPGKGLEWVGWINTYTGEPTYAADFKRRFTFSLDTSKSTAYLQMNSLRAEDTAVYYCAKYPHYYGSSHWYFDVWGQGTLVTVSSASTKGPSVFPLAPSSKSTSGGTAALGCLVKDYFPEPVTVSWNSGALTSGVHTFPAVLQSSGLYSLSSVVTVPSSSLGTQTYICNVNHKPSNTKVDKKVEPKSCDKTHTCPPCPAPEAAGGPSVFLFPPKPKDTLMISRTPEVTCVVVDVSHEDPEVKFNWYVDGVEVHNAKTKPREEQYNSTYRVVSVLTVLHQDWLNGKEYKCKVSNKALPAPIEKTISKAKGQPREPQVYTLPPSREEMTKNQVSLTCLVKGFYPSDIAVEWESNGQPENNYKTTPPVLDSDGSFFLYSKLTVDKSRWQQGNVFSCSVMHEALHNAYTQKSLSLSPGKGGSGGGGSGGEIVLTQSPGTLSLSPGERATLSCERSSGDIGDSYVSWYQQKPGQAPRLVIYADDQRPSGIPDRFSGSGSGTDFTLTISRLEPEDFAVYYCQSYDINIDIVFGGGTKVEIKGGGGSGGGGSGGGGSEVTLRESGPALVKPTQTLTLTCTFSGFSLSTYGMGVGWIRQPPGKALEWLANIWWDDDKYYNPSLKNRLTISKDTSKNQVVLTMTNMDPVDTATYYCARIESIGTTYSFDYWGQGTMVTVSS light: not shown
0.222	0.124	–	AB014-GS6-9E8.4 VH-VK (bispecific antibody, human IgG1, kappa, L234A L235A) heavy: EVQLVESGGGLVQPGGSLRLSCAASGYTFTNYGMNWVRQAPGKGLEWVGWINTYTGEPTYAADFKRRFTFSLDTSKSTAYLQMNSLRAEDTAVYYCAKYPHYYGSSHWYFDVWGQGTLVTVSSASTKGPSVFPLAPSSKSTSGGTAALGCLVKDYFPEPVTVSWNSGALTSGVHTFPAVLQSSGLYSLSSVVTVPSSSLGTQTYICNVNHKPSNTKVDKKVEPKSCDKTHTCPPCPAPEAAGGPSVFLFPPKPKDTLMISRTPEVTCVVVDVSHEDPEVKFNWYVDGVEVHNAKTKPREEQYNSTYRVVSVLTVLHQDWLNGKEYKCKVSNKALPAPIEKTISKAKGQPREPQVYTLPPSREEMTKNQVSLTCLVKGFYPSDIAVEWESNGQPENNYKTTPPVLDSDGSFFLYSKLTVDKSRWQQGNVFSCSVMHEALHNAYTQKSLSLSPGKGGSGGGEVTLRESGPALVKPTQTLTLTCTFSGFSLSTYGMGVGWIRQPPGKALEWLANIWWDDDKYYNPSLKNRLTISKDTSKNQVVLTMTNMDPVDTATYYCARIESIGTTYSFDYWGQGTMVTVSSGGGGSGGGGSGGGGSEIVLTQSPGTLSLSPGERATLSCERSSGDIGDSYVSWYQQKPGQAPRLVIYADDQRPSGIPDRFSGSGSGTDFTLTISRLEPEDFAVYYCQSYDINIDIVFGGGTKVEIK light: not shown
